Article PMC12102759 (2025)

B1: RNF115 peptide 69-84 (E3 ubiquitin-protein ligase RNF115), 16-mer library wild type / MDM2 SWIB (MDM2 SWIB/MDM2 domain, residues 17-125) (parent complex)
chain 1: THFAELWGHLDHTMFF
chain 2: SQIPASEQETLVRPKPLLLKLLKSVGAQKDTYTMKEVLFYLGQYIMTKRLYDEKQQHIVYCSNDLLGDLFGVPSFSVKEHRKIYTMIYRNLVVVNQQESSDSGTSVSEN
B2: MXI1 peptide 6-21 (Max-interacting protein 1), 16-mer library wild type / SIN3A PAH2 (SIN3A PAH domain, residues 295-383) (parent complex)
chain 1: MINVQRLLEAAEFLER
chain 2: SLQNNQPVEFNHAINYVNKIKNRFQGQPDIYKAFLEILHTYQKEQRNAKEAGGNYTPALTEQEVYAQVARLFKNQEDLLSEFGQFLPDA

Variants of: B1
Experiment: proteomic peptide phage display deep mutational scan (ProP-PD DMS): M13 P8 16-mer library selected against immobilised GST-tagged bait for four days (rounds), NGS of the eluted pools per day and pseudo-replica; bait immobilised on MaxiSorp plates (10 µg), library pre-cleared on GST, 2 h binding at 4 °C, five washes; one round per day, days 1-4; value from days 2 and 3

Variant	screen value
chain 1 T1L	0.000174 average fractional NGS count over selection days 2 and 3 (reads of this peptide / all reads for the bait, averaged over …
chain 1 A4L	0.000327 average fractional NGS count over selection days 2 and 3 (reads of this peptide / all reads for the bait, averaged over …
chain 1 D11F	8.75e-05 average fractional NGS count over selection days 2 and 3 (reads of this peptide / all reads for the bait, averaged over …
chain 1 A4Y	0.000442 average fractional NGS count over selection days 2 and 3 (reads of this peptide / all reads for the bait, averaged over …
chain 1 F15I	0.00139 average fractional NGS count over selection days 2 and 3 (reads of this peptide / all reads for the bait, averaged over …
chain 1 T1I	0.000116 average fractional NGS count over selection days 2 and 3 (reads of this peptide / all reads for the bait, averaged over …
chain 1 L6H	0.00174 average fractional NGS count over selection days 2 and 3 (reads of this peptide / all reads for the bait, averaged over …
chain 1 G8S	0.0101 average fractional NGS count over selection days 2 and 3 (reads of this peptide / all reads for the bait, averaged over …
chain 1 D11G	0.000731 average fractional NGS count over selection days 2 and 3 (reads of this peptide / all reads for the bait, averaged over …
chain 1 L6I	0.000313 average fractional NGS count over selection days 2 and 3 (reads of this peptide / all reads for the bait, averaged over …
chain 1 F15V	0.0496 average fractional NGS count over selection days 2 and 3 (reads of this peptide / all reads for the bait, averaged over …
chain 1 T1N	0.000471 average fractional NGS count over selection days 2 and 3 (reads of this peptide / all reads for the bait, averaged over …
chain 1 T13N	0.00271 average fractional NGS count over selection days 2 and 3 (reads of this peptide / all reads for the bait, averaged over …
chain 1 T1P	0.00338 average fractional NGS count over selection days 2 and 3 (reads of this peptide / all reads for the bait, averaged over …
chain 1 A4G	0.000193 average fractional NGS count over selection days 2 and 3 (reads of this peptide / all reads for the bait, averaged over …
chain 1 T13L	0.00319 average fractional NGS count over selection days 2 and 3 (reads of this peptide / all reads for the bait, averaged over …
chain 1 A4D	0.000369 average fractional NGS count over selection days 2 and 3 (reads of this peptide / all reads for the bait, averaged over …
chain 1 T13K	0.000352 average fractional NGS count over selection days 2 and 3 (reads of this peptide / all reads for the bait, averaged over …
chain 1 G8K	0.000179 average fractional NGS count over selection days 2 and 3 (reads of this peptide / all reads for the bait, averaged over …

Variant	screen value
chain 1 H12A	0.00464 average fractional NGS count over selection days 2 and 3 (reads of this peptide / all reads for the bait, averaged over …
chain 1 F15N	0.000153 average fractional NGS count over selection days 2 and 3 (reads of this peptide / all reads for the bait, averaged over …
chain 1 H2T	0.00209 average fractional NGS count over selection days 2 and 3 (reads of this peptide / all reads for the bait, averaged over …
chain 1 H9M	0.00238 average fractional NGS count over selection days 2 and 3 (reads of this peptide / all reads for the bait, averaged over …
chain 1 M14T	0.00238 average fractional NGS count over selection days 2 and 3 (reads of this peptide / all reads for the bait, averaged over …
chain 1 M14G	0.000223 average fractional NGS count over selection days 2 and 3 (reads of this peptide / all reads for the bait, averaged over …
chain 1 T13S	0.0255 average fractional NGS count over selection days 2 and 3 (reads of this peptide / all reads for the bait, averaged over …
chain 1 T1Q	0.00081 average fractional NGS count over selection days 2 and 3 (reads of this peptide / all reads for the bait, averaged over …
chain 1 G8E	0.00632 average fractional NGS count over selection days 2 and 3 (reads of this peptide / all reads for the bait, averaged over …
chain 1 F15G	0.00105 average fractional NGS count over selection days 2 and 3 (reads of this peptide / all reads for the bait, averaged over …
chain 1 D11I	0.000389 average fractional NGS count over selection days 2 and 3 (reads of this peptide / all reads for the bait, averaged over …
chain 1 T13I	0.00105 average fractional NGS count over selection days 2 and 3 (reads of this peptide / all reads for the bait, averaged over …
chain 1 H9D	0.0019 average fractional NGS count over selection days 2 and 3 (reads of this peptide / all reads for the bait, averaged over …
chain 1 F15T	0.00702 average fractional NGS count over selection days 2 and 3 (reads of this peptide / all reads for the bait, averaged over …
chain 1 F15A	0.0214 average fractional NGS count over selection days 2 and 3 (reads of this peptide / all reads for the bait, averaged over …
chain 1 A4Q	0.000494 average fractional NGS count over selection days 2 and 3 (reads of this peptide / all reads for the bait, averaged over …
chain 1 H9W	0.000883 average fractional NGS count over selection days 2 and 3 (reads of this peptide / all reads for the bait, averaged over …
chain 1 L6Q	0.000157 average fractional NGS count over selection days 2 and 3 (reads of this peptide / all reads for the bait, averaged over …
chain 1 D11R	0.000139 average fractional NGS count over selection days 2 and 3 (reads of this peptide / all reads for the bait, averaged over …

Variant	screen value
chain 1 L6Y	0.00417 average fractional NGS count over selection days 2 and 3 (reads of this peptide / all reads for the bait, averaged over …
chain 1 L6W	0.000846 average fractional NGS count over selection days 2 and 3 (reads of this peptide / all reads for the bait, averaged over …
chain 1 H9Y	0.000619 average fractional NGS count over selection days 2 and 3 (reads of this peptide / all reads for the bait, averaged over …
chain 1 D11K	0.000112 average fractional NGS count over selection days 2 and 3 (reads of this peptide / all reads for the bait, averaged over …
chain 1 T1A	0.00514 average fractional NGS count over selection days 2 and 3 (reads of this peptide / all reads for the bait, averaged over …
chain 1 H2P	0.00101 average fractional NGS count over selection days 2 and 3 (reads of this peptide / all reads for the bait, averaged over …
chain 1 E5Q	0.00197 average fractional NGS count over selection days 2 and 3 (reads of this peptide / all reads for the bait, averaged over …
chain 1 M14A	0.00114 average fractional NGS count over selection days 2 and 3 (reads of this peptide / all reads for the bait, averaged over …
chain 1 H12K	0.00015 average fractional NGS count over selection days 2 and 3 (reads of this peptide / all reads for the bait, averaged over …
chain 1 H9Q	0.00185 average fractional NGS count over selection days 2 and 3 (reads of this peptide / all reads for the bait, averaged over …
chain 1 M14L	0.000799 average fractional NGS count over selection days 2 and 3 (reads of this peptide / all reads for the bait, averaged over …
chain 1 T1S	0.00105 average fractional NGS count over selection days 2 and 3 (reads of this peptide / all reads for the bait, averaged over …
chain 1 H2L	0.00441 average fractional NGS count over selection days 2 and 3 (reads of this peptide / all reads for the bait, averaged over …
chain 1 M14V	0.00137 average fractional NGS count over selection days 2 and 3 (reads of this peptide / all reads for the bait, averaged over …
chain 1 A4N	0.000396 average fractional NGS count over selection days 2 and 3 (reads of this peptide / all reads for the bait, averaged over …
chain 1 H2K	0.000959 average fractional NGS count over selection days 2 and 3 (reads of this peptide / all reads for the bait, averaged over …
chain 1 H12I	0.000167 average fractional NGS count over selection days 2 and 3 (reads of this peptide / all reads for the bait, averaged over …
chain 1 D11N	0.00248 average fractional NGS count over selection days 2 and 3 (reads of this peptide / all reads for the bait, averaged over …

Variants of: B2
Experiment: as above

Variant	screen value
chain 1 MINVQHLLEAAEFLER [chain 1 R6H]	0.00034 average fractional NGS count over selection days 2 and 3 (reads of this peptide / all reads for the bait, averaged over …
chain 1 GINVQRLLEAAEFLER [chain 1 M1G]	0.000229 average fractional NGS count over selection days 2 and 3 (reads of this peptide / all reads for the bait, averaged over …
chain 1 MINVQRLLEAAEFGER [chain 1 L14G]	0.000436 average fractional NGS count over selection days 2 and 3 (reads of this peptide / all reads for the bait, averaged over …
chain 1 MINVQRLLEAAEFPER [chain 1 L14P]	0.0014 average fractional NGS count over selection days 2 and 3 (reads of this peptide / all reads for the bait, averaged over …
chain 1 MINVQRLLNAAEFLER [chain 1 E9N]	0.0151 average fractional NGS count over selection days 2 and 3 (reads of this peptide / all reads for the bait, averaged over …
chain 1 MINVQRLIEAAEFLER [chain 1 L8I]	0.00287 average fractional NGS count over selection days 2 and 3 (reads of this peptide / all reads for the bait, averaged over …
chain 1 MNNVQRLLEAAEFLER [chain 1 I2N]	0.00111 average fractional NGS count over selection days 2 and 3 (reads of this peptide / all reads for the bait, averaged over …
chain 1 VINVQRLLEAAEFLER [chain 1 M1V]	0.000344 average fractional NGS count over selection days 2 and 3 (reads of this peptide / all reads for the bait, averaged over …
chain 1 MIYVQRLLEAAEFLER [chain 1 N3Y]	0.000298 average fractional NGS count over selection days 2 and 3 (reads of this peptide / all reads for the bait, averaged over …
chain 1 MINVQRLLEAAEFLDR [chain 1 E15D]	0.000913 average fractional NGS count over selection days 2 and 3 (reads of this peptide / all reads for the bait, averaged over …
chain 1 MINVQRLLEAAYFLER [chain 1 E12Y]	0.000478 average fractional NGS count over selection days 2 and 3 (reads of this peptide / all reads for the bait, averaged over …
chain 1 MINVQRLLYAAEFLER [chain 1 E9Y]	0.000223 average fractional NGS count over selection days 2 and 3 (reads of this peptide / all reads for the bait, averaged over …
chain 1 MINVQRLLAAAEFLER [chain 1 E9A]	0.000182 average fractional NGS count over selection days 2 and 3 (reads of this peptide / all reads for the bait, averaged over …
chain 1 MINVQRLLEAAEFLGR [chain 1 E15G]	0.00623 average fractional NGS count over selection days 2 and 3 (reads of this peptide / all reads for the bait, averaged over …
chain 1 MINVQSLLEAAEFLER [chain 1 R6S]	0.00011 average fractional NGS count over selection days 2 and 3 (reads of this peptide / all reads for the bait, averaged over …
chain 1 MINVQRLLEAAESLER [chain 1 F13S]	0.000565 average fractional NGS count over selection days 2 and 3 (reads of this peptide / all reads for the bait, averaged over …
chain 1 MINVQRLLEAAEFLVR [chain 1 E15V]	0.0659 average fractional NGS count over selection days 2 and 3 (reads of this peptide / all reads for the bait, averaged over …
